{
  "source": "paper PMC7584396",
  "target": "prefusion conformation-stabilized SARS-CoV-2 spike ectodomain (S2P_(ecto)) with AviTag and 8x-His tag (SARS-CoV-2) (UniProt P0DTC2)",
  "assay": "ELISA",
  "data": [
    {"substance": "COV2-2130 (human mAb, recombinant IgG1) (antibody)", "values": [
      {"measurement": "percent inhibition of hACE2 binding to S2P (ecto) at 500 ng/mL", "result": 100, "unit": "%"}
    ]}
  ]
}
